B1: HDV Ribozyme (parent)
chain: GGCCGGCAUGGUCCCAGCCUCCUCGCUGGCGCCGGCUGGGCAACAUUCCGAGGGGACCGUCCCCUCGGUAAUGGCGAAUGGGACCCA

Variants of: B1
Experiment: self-cleavage, relative activity (ratio to wild type); higher = more cleavage; co-transcriptional

| Variant | self-cleavage |
| --- | --- |
| GGCCGGCAUGGUCGCAGCCUCCUCGCUAGCGCCGGCUGGGCAACAUUCCGAGGGGACCGUCCCCUCGGUAAUGGCGAAUGGGACCCA [C14G G28A] | 0.0415 |
| GGCCGGCAUGGUCGCAGCCUCCUCGCUGGCGCCGGCUGGGCAACAUUCCGAGGGGACCGUCCACUCGGUAAUGGCGAAUGGGACCCA [C14G C63A] | 0.755 |
| GGCCGGCAUGGUCGCAGCCUCCUCGCUGGCGCCGGCUGGGCAACAUUCCGAGGGGACCGUCCCCUCUGUAAUGGCGAAUGGGACCCA [C14G G67U] | 0.594 |
| GGCCGGCAUGGUCGCAGCCUCCUCGCUGGCGCCGGCUGGGCAACAUUCCGAGGGGACCGUCCCCUCGGUAAUGGCGAAUGGGACUCA [C14G C85U] | 1.31 |
| GGCCGGCAUGGUCGCAGCCUCCUCGCUGGCGCAGGCUGGGCAACAUUCCGAGGGGACCGUCCCCUCGGUAAUGGCGAAUGGGACCCA [C14G C33A] | 0.151 |
| GGCCGGCAUGGUCGCAACCUCCUCGCUGGCGCCGGCUGGGCAACAUUCCGAGGGGACCGUCCCCUCGGUAAUGGCGAAUGGGACCCA [C14G G17A] | 0.123 |
| GGCCGGCAUGGUCGCAGCCUCCUCGCUGGCGCCGGCUGGGCAACAUUCCGAGGGGACCUUCCCCUCGGUAAUGGCGAAUGGGACCCA [C14G G59U] | 0.745 |
| GGCCGGCAUGGUCGCAGCCUCCUCGCUGGCGCCGGCUCGGCAACAUUCCGAGGGGACCGUCCCCUCGGUAAUGGCGAAUGGGACCCA [C14G G38C] | 0.142 |
| GGCCGGCAUGGUCGCAGCCUCCUCGCUGGCGCCGGCUGGGCAACAUUCCGAGGGGACCGUCCCCUUGGUAAUGGCGAAUGGGACCCA [C14G C66U] | 0.831 |
| GGCCGGCAUGGUCGCAGCCUCCUCGCUGGCCCCGGCUGGGCAACAUUCCGAGGGGACCGUCCCCUCGGUAAUGGCGAAUGGGACCCA [C14G G31C] | 0.145 |
| GGCCGGCAUGGUCGCAGCCUCCUCGCUGGCGCCGGCUGGGCAACAUUCCGAGGGGACCGUCCCCUCGGUAAUGGCGAAUGGGAGCCA [C14G C84G] | 0.128 |
| GGCCGGCAUGGUCGCAGCCUCCUCGCUGGCGCCGGCUGGGCAACAUUCCGAGGGGACCGUCCCCUCGGUAAUGGCGAAUGGGAACCA [C14G C84A] | 0.519 |
| GGCCGGCAUGGUCGCAGCCUCCUCGCUGGCGCCGGCUGGGCAACAUUCCGAGCGGACCGUCCCCUCGGUAAUGGCGAAUGGGACCCA [C14G G53C] | 0.727 |
| GGCCGGCAUGGUCGCAGCCUCCUCGCUGGCGCCGGGUGGGCAACAUUCCGAGGGGACCGUCCCCUCGGUAAUGGCGAAUGGGACCCA [C14G C36G] | 0.237 |
| GGCCGGCAUGGUCGCAGCCUCCUCGCUGGCGCCGGCUGGGCAAAAUUCCGAGGGGACCGUCCCCUCGGUAAUGGCGAAUGGGACCCA [C14G C44A] | 0.128 |
| GGCCGGCAUGGUCGCAGCCUCCUCGCUGGCGCCGCCUGGGCAACAUUCCGAGGGGACCGUCCCCUCGGUAAUGGCGAAUGGGACCCA [C14G G35C] | 0 |

| Variant | self-cleavage |
| --- | --- |
| GGCCGGCAUGGUCGCAGCCUCCUCGCUGGCGCCGACUGGGCAACAUUCCGAGGGGACCGUCCCCUCGGUAAUGGCGAAUGGGACCCA [C14G G35A] | 0.199 |
| GGCCGGCAUGGUCGCAGCCUCCUCGCUGGCGCCGUCUGGGCAACAUUCCGAGGGGACCGUCCCCUCGGUAAUGGCGAAUGGGACCCA [C14G G35U] | 0 |
| GGCCGGCAUGGUCGCAGCCUCCUCGCUGGCGCCGGCUGGGCAACAUUCCGAGGGGACCGUACCCUCGGUAAUGGCGAAUGGGACCCA [C14G C61A] | 0.88 |
| GGCCGGCAUGGUCGCAGCCUCCUCGCUGGCGCCGGCUGGGCAACAUUCCGACGGGACCGUCCCCUCGGUAAUGGCGAAUGGGACCCA [C14G G52C] | 0.519 |
| GGCCGGCAUGGUCGCAGCCUCCUCGCUGGCGCCGGCUGGGCAACAUUCCGAAGGGACCGUCCCCUCGGUAAUGGCGAAUGGGACCCA [C14G G52A] | 0.739 |
| GGCCGGCAUGGUCGCAGCCUCCUCGCUGGCGCCGGCUGGGCAACAUUCCGAGGGGACCGUCACCUCGGUAAUGGCGAAUGGGACCCA [C14G C62A] | 0.437 |
| GGCCGGCAUGGUCGCAGCCUCCUCGCUGGCGCCGGCUGGGCAACAUUCCGAGGGGACCGUCUCCUCGGUAAUGGCGAAUGGGACCCA [C14G C62U] | 0.554 |
| GGCCGGCAUGGUCGCAGCCUCCUCGCUGCCGCCGGCUGGGCAACAUUCCGAGGGGACCGUCCCCUCGGUAAUGGCGAAUGGGACCCA [C14G G29C] | 0.0665 |
| GGCCGGCAUGGUCGCAGCCUCCUCGCUGUCGCCGGCUGGGCAACAUUCCGAGGGGACCGUCCCCUCGGUAAUGGCGAAUGGGACCCA [C14G G29U] | 0.0396 |
| GGCCGGCAUGGUCGCAGCCUCCUCGCUGGCGCCGGCUGGGCAACAUUCCGAGGGGACGGUCCCCUCGGUAAUGGCGAAUGGGACCCA [C14G C58G] | 0.712 |
| GGCCGGCAUGGUCGCAGCCUCCUCGCUGGCGCCGGCUGGUCAACAUUCCGAGGGGACCGUCCCCUCGGUAAUGGCGAAUGGGACCCA [C14G G40U] | 0.0594 |
| GGCCGGCAUGGUCGCAGCCUCCUCGCUGGCGCCAGCUGGGCAACAUUCCGAGGGGACCGUCCCCUCGGUAAUGGCGAAUGGGACCCA [C14G G34A] | 0 |
| GGCCGGCAUGGUCGCAGCCUCCUCGCUGGCGCCGGCUGGGCAACAUUCCGAGGGGACCGUCCCCUCGCUAAUGGCGAAUGGGACCCA [C14G G68C] | 0.383 |
| GGCCGGCAUGGUCGCAGCCUCCUCGCUGGCGCCGGCUGGGAAACAUUCCGAGGGGACCGUCCCCUCGGUAAUGGCGAAUGGGACCCA [C14G C41A] | 0.776 |
| GGCCGGCAUGGUCGCAGCCUCCUCGCUGGCGCCGGCUGGGCAACAUUCGGAGGGGACCGUCCCCUCGGUAAUGGCGAAUGGGACCCA [C14G C49G] | 0.383 |
| GGCCGGCAUGGUCGCAGCCUCCUCGCUGGCGCCGGCUGGGCAACAUUCUGAGGGGACCGUCCCCUCGGUAAUGGCGAAUGGGACCCA [C14G C49U] | 0.529 |
